Laboratory results from patent US20180169233A1 (MOSAIC BIOMEDICALS S L, published 2018).

Target: human LIF (source not stated) (human, UniProt P15018 23-202)
Assay: cell-based or functional assay

Chain of human LIF (source not stated) (P15018 23-202 limits assumed): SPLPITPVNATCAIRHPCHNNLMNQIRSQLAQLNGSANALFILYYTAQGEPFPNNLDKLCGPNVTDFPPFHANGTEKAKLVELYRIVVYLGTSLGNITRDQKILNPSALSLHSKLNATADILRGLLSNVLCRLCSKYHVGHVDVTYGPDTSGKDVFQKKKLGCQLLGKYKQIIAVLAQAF

B1: h5D8 (humanized 5D8 comprising H2 and L2) (antibody, human IgG1, kappa, V domains shown)
VH: QVQLQESGGGLVKPGGSLRLSCAASGFTFSHAWMHWVRQAPGKGLEWVGQIKAKSDDYATYYAESVKGRFTISRDDSKNTLYLQMNSLKTEDTAVYYCTCWEWDLDFWGQGTMVTVSS
VL: DIVMTQTPLSSPVTLGQPASISCRSSQSLLDSDGHTYLNWLQQRPGQPPRLLIYSVSNLESGVPDRFSGSGAGTDFTLKISRVEAEDVGVYYCMQATHAPPYTFGQGTKLEIKR
- IC50 for biological inhibition (pSTAT3, U-251 cells, serum starved, endogenous LIF): 490 picomolar
